Assay results as given in patent US20180326053A1 (OKLAHOMA MEDICAL RESEARCH FOUNDATION, published 2018).
Changes are numbered by the printed parent chain. Numbers in names are those of the source.

Tests used:
[1] = molecular target: T1, human Protein C (unactivated, zymogen) (human, UniProt P04070 43-461); experiment: ELISA, plate coated with human PC, IgG titrated (PC-ELISA)
T1 construct: mature; also called PC; hPC
Experimental: (§1) Plates (Nunc, cat#442404) were coated with 100 μl of human aPC (1 μg/ml) or hPC (2 μg/ml) diluted in DPBS (Gibco, cat#14040) overnight (o/n) at 4° C. After washing, the ELISA plate was blocked with 200 μl MPBST for 1 hr at RT, and tapped dry on a stack of paper towels. To each well 100 μl of IgG to be tested was added, and incubated for 1 hr at RT (for EC₅₀ determinations 1:3 dilutions were performed starting at 20 nM). Plates were washed 5× with PBST. 100 μl of anti-hIgG Fc-HRP (Sigma, cat#A0170) diluted 1:10,000 in PBST was added to each well. Plates were washed and 100 μl/well of TMB substrate was added and incubated at room temperature for 5 min. 100 μl/well of 1 N HCl was added to terminate the reaction. The plate was read with an ELISA plate reader (Biotek, Elx405) at 450 nm wavelength.

[2] = molecular target: T2, human activated Protein C (human, Light chain (chain 1): the Gla domain holds gamma-carboxyglutamates, from memory at pos 6, 7, 14, 16, 19, 20, 25, 26 and 29, written E. Pos 71 is beta-hydroxy-Asp, written D. N-glycans are present. …); experiment: aPC-ELISA, human aPC coated, IgG titrated
T2 construct: also called aPC; APC
T2 light: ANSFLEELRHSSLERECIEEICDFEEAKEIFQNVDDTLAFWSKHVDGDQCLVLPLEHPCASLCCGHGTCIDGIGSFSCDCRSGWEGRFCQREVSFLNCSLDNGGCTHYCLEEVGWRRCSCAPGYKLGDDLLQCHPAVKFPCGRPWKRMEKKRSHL
T2 heavy: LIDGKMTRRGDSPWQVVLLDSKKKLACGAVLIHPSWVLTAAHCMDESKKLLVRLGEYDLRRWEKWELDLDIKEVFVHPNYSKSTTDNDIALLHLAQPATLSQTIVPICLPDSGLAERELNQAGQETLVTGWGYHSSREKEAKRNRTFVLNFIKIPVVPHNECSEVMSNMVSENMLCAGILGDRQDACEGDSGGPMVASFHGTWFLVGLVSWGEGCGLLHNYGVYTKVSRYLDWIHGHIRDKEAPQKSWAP
Experimental: as §1

[3] = molecular target: T1, human Protein C (unactivated, zymogen); experiment: PC-ELISA, hPC coated
Experimental: as §1

[4] = molecular target: T2, human activated Protein C; experiment: Biacore (SPR)
[5] = molecular target: T2, human activated Protein C; experiment: SPR, human aPC

B1: TPP-3656 (HU1573-V3-hIgG2Kappa) (antibody, V domains shown)
VH: EVQLVESGGGLVQPGGSLRLSCAASGFTFSNYYLNWVRQAPGKGLEWVGDIRLKSNNYEKHYAESVKGRFTISRDDSKNSLYLQMNSLKTEDTAVYYCAREGDYFDYWGQGTLVTVSS
VL: DIVLTQSPASLAVSPGQRATITCKASESVDSFGATFMHWYQQKPGQPPKLLIYLASNLESGVPARFSGSGSGTDFTLTINPVEANDTANYYCQQNNEDPYTFGQGTKLEIKR
notes: also called TPP-3656 VK7-3
binding result [1]: no binding (tested: 10 µM (log M -5)) | EC50 [2]: 0.67 nM

B2: TPP-3639 (HU1573-V4-hIgG2Kappa) (antibody, V domains shown)
VH: B1 VH with N31S, L34M, G49A, E64D, D76N, S77A, K89R, T90A
VL: B1 VL with K24R
notes: also called TPP-3639 VK7-3
binding result [3]: no binding | EC50 [2]: 0.42 nM

B3: TPP-3658 (HU1573-V1-hIgG2Kappa) (antibody, V domains shown)
VH: B1 VH with G49A, A99I, L113T
VL: B1 VL
notes: also called TPP-3658 VK7-3
binding result [1]: no binding (tested: 10 µM (log M -5)) | EC50 [2]: 0.65 nM

B4: TPP-4885 (BAY1896502) (antibody, human IgG2, kappa, V domains shown)
VH: B1 VH
VL: B1 VL with N85D
notes: TPP-3656 with the N85D mutation in the light chain; IgG2/kappa like TPP-3656; also called type II ab BAY1896502
Kd [4]: 14 nM

B5: TPP-3657 (HU1573-V2-hIgG2Kappa) (antibody, V domains shown)
VH: EVQLVESGGGLVQPGGSLRLSCAASGFTFSNYYLNWVRQAPGKGLEWVADIKSNNYEKHYAESVKGRFTISRDNAKNSLYLQMNSLRAEDTAVYYCAREGDYFDYWGQGTLVTVSS
VL: B1 VL
notes: also called TPP-3657 VK7-3
binding result [1]: no binding (tested: 10 µM (log M -5)) | EC50 [2]: 0.43 nM

B6: TPP-3356 (H1573VK2-VH1Cgl1-hIgG2Kappa) (antibody, V domains shown)
VH: B1 VH with G49A, A99I, L113T
VL: DIVMTQTPLSLSVTPGQPASISCKASESVDSFGATFMHWYLQKPGQPPQLLIYLASNLESGVPDRFSGSGSGTDFTLKISRVEAEDVGVYYCQQNNEDPYTFGQGTKLEIKR
notes: also called TPP-3356 VK2D-29
binding result [3]: no binding (tested: up to 10 µM) | EC50 [2]: 0.5 nM | Kd [5]: 13.6 nM

B7: TPP-3357 (H1573Vk2A-VH1Cgl2-hIgG2Kappa) (antibody, V domains shown)
VH: B1 VH with N31S, L34M, G49S, E64D, D76N, S77A, K89R, T90A
VL: B6 VL with M4L, K24R
Kd [5]: 23.4 nM
